pKd: −log10 of the molar value.

Here are results for one substance from article PMC10602909.

For the data set, the system named is ZNF506 ZF1-8 (C-terminal zinc finger array) (human). Description: ITC. The conditions noted are these: ITC (MicroCal PEAQ-ITC): 100 mM Tris pH 8, 500 mM NaCl, 25 uM ZnCl2, 10 mM reduced glutathione; protein 20 uM, DNA 200 nM as printed; temperature not stated.

Consider PBS-Pro 28 bp dsDNA probe, for which the pKd (in general, the Kd on a negative log10 scale, so that one unit is a factor of ten) was 6.08.
